# Data reported in ChEMBL document CHEMBL2029331, “Red fluorescent scaffold for highly sensitive protease activity probes” (Bioorg Med Chem Lett, 2012).
# B1: Caspase-3 (Homo sapiens), P42574 (protein)
# chain: MENTENSVDSKSIKNLEPKIIHGSESMDSGISLDNSYKMDYPEMGLCIIINNKNFHKSTGMTSRSGTDVDAANLRETFRNLKYEVRNKNDLTREEIVELMRDVSKEDHSKRSSFVCVLLSHGEEGIIFGTNGPVDLKKITNFFRGDRCRSLTGKPKLFIIQACRGTELDCGIETDSGVDDDMACHKIPVEADFLYAYSTAPGYYSWRNSKDGSWFIQSLCAMLKQYADKLEFMHILTRVNRKVATEFESFSFDATFHAKKQIPCIVSMLTKELYFYH
# Experiments:
# [1] = substrate: Cc1ccccc1C1=C2C=CC(=N)C=C2[Si](C)(C)c2cc(NC(=O)[C@H](CC(=O)O)NC(=O)[C@@H](NC(=O)[C@H](CCC(=O)O)NC(=O)[C@H](CC(=O)O)NC(=O)OCc3ccccc3)C(C)C)ccc21; experiment: Ratio of Kcat to Km for caspase3 by FRET assay
# [2] = substrate: Cc1ccccc1C1=C2C=CC(=N)C=C2[Si](C)(C)c2cc(NC(=O)[C@H](CC(=O)O)NC(=O)[C@@H](NC(=O)[C@H](CCC(=O)O)NC(=O)[C@H](CC(=O)O)NC(=O)OCc3ccccc3)C(C)C)ccc21; experiment: Activity of caspase3 after 10 hrs by FRET assay
protein,measurement,setting,value
B1,kcat/Km,[1],3.1 ×10⁶ /M/s
same,Km,[2],1.2 µM
same,Vmax,[2],6.8 ×10⁻⁸ M/s
